Consider seven molecules from article PMC5321513 (Structure (London, England : 1993), 2017).

[ ]: non-standard residue; d: D form. pS = N[C@@H](COP(=O)(O)O)C(=O)O

Sequences and labels used below:
B6: 14-3-3σ Clu1 (1-231) (domain or fragment, human)
chain: GPHMERASLIQKAKLAEQAERYEDMAAFMKGAVEKGEELSCEERNLLSVAYKNVVGGQRAAWRVLSSIEQKSNEEGSEEKGPEVREYREKVETELQGVCDTVLGLLDSHLIKEAGDAESRVFYLKMKGDYYRYLAEVATGDDKKRIIDSARSAYQEAMDISAAAMPPTNPIRLGLALNFSVFHYEIANSPEEAISLAKTTFDEAMADLHTLSEDSYKDSTLIMQLLRDNLTLWT
B7: 14-3-3σ WT (1-231) (domain or fragment, human)
chain: GAMGSMERASLIQKAKLAEQAERYEDMAAFMKGAVEKGEELSCEERNLLSVAYKNVVGGQRAAWRVLSSIEQKSNEEGSEEKGPEVREYREKVETELQGVCDTVLGLLDSHLIKEAGDAESRVFYLKMKGDYYRYLAEVATGDDKKRIIDSARSAYQEAMDISKKEMPPTNPIRLGLALNFSVFHYEIANSPEEAISLAKTTFDEAMADLHTLSEDSYKDSTLIMQLLRDNLTLWT

The series “14-3-3σ Clu1 (1-231)” deals with B6. The series is described as follows: crystal structure.
Series [1] concerns the target T1, full-length human 14-3-3ζ (human, UniProt P63104 1-245).
T1 sequence (looked up): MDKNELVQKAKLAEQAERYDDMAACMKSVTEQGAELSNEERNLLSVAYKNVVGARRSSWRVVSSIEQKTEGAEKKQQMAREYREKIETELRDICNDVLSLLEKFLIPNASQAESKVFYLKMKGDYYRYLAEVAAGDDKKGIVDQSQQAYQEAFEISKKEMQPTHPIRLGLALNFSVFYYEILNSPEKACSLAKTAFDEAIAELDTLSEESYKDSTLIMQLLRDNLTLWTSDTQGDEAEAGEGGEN
The series is described as follows: SEC. In general terms: SEC sorts molecules by how far they enter the pores of the column.

Another series deals with T2, 14-3-3τ (1-230) (human, UniProt P27348 1-230).
T2 sequence: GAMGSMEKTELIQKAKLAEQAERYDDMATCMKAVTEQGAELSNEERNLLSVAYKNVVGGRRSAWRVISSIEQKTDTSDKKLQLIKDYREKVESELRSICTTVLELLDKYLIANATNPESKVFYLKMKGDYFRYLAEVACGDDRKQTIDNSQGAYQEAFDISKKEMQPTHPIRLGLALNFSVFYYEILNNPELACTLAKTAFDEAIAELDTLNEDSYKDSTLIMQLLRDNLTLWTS
Description: SEC.

A further series has as its target T3, 14-3-3ε (1-232) (human, UniProt P62258 1-232).
T3 sequence: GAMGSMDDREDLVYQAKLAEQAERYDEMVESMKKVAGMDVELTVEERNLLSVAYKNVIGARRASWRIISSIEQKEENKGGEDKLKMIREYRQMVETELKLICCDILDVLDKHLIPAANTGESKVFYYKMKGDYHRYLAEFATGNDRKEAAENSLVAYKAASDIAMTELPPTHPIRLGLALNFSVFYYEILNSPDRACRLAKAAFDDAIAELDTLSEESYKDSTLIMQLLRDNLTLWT
Description: SEC.

In a further series the target is T4, 14-3-3β (1-232) (human, UniProt P31946 1-232).
T4 sequence: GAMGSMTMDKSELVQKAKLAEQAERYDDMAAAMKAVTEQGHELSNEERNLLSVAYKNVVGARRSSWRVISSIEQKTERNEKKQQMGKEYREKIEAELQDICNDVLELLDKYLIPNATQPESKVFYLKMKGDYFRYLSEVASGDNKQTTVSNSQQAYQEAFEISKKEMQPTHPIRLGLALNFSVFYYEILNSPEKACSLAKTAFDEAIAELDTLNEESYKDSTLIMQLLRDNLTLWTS
The series is described as follows: SEC.

The target of a further series is T5, 14-3-3η (1-235) (human, UniProt Q04917 1-235).
T5 sequence: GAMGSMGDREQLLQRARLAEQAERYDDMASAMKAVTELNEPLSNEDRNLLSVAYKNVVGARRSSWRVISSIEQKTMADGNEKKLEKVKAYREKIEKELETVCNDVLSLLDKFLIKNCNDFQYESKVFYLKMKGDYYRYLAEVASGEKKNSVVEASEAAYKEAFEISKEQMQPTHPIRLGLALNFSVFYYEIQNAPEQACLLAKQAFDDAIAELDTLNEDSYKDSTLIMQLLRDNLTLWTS
Description: SEC.

In series [2] the target is T6, full-length human 14-3-3γ (human, UniProt P61981 1-247).
T6 sequence (looked up): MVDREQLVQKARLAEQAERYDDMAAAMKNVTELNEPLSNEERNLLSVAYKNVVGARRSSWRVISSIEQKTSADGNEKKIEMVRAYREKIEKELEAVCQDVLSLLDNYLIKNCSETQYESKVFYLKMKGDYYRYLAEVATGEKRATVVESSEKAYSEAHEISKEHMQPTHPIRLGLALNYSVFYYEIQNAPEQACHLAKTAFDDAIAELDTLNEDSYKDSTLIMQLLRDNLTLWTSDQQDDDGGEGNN
Description: SEC.

Series [3] concerns the target B7. Description: SEC.
Series [4] addresses T6, full-length human 14-3-3γ. Description: ITC. (In general: Isothermal titration calorimetry measures the heat released or taken up as one component is titrated into another.)
For series [5], the target named is B7. Description: ITC.
Series [6] concerns the target B7. Description: other fluorescence titration.
The series “crystal structure” deals with the molecule itself. Description: crystal structure.

B1: pHSPB6 (7-153) (domain or fragment, human, UniProt O14558 7-153, looked up)
chain: VQPSWLRRASAPLPGLSAPGRLFDQRFGEGLLEAELAALCPTTLAPYYLRAPSVALPVAQVPTDPGHFSVLLDVKHFSPEEIAVKVVGEHVEVHARHEERPDEHGFVAREFHRRYRLPPGVDPAAVTSALSPEGVLSIQAAPASAQA
modifications: phosphoserine at 16
Consider B1, for which the binding result (in the series with 14-3-3σ Clu1 (1-231); in [1]; with 14-3-3τ (1-230); in the series with 14-3-3ε (1-232); with 14-3-3β (1-232); in the series with 14-3-3η (1-235)) was “binds” each time. Also, the binding result (in series [2]; in the series with 14-3-3σ WT (1-231) [3]) was “binds” each time.

B2: full-length pHSPB6 (1-160) (natural protein, human, UniProt O14558 1-160, looked up)
chain: MEIPVPVQPSWLRRASAPLPGLSAPGRLFDQRFGEGLLEAELAALCPTTLAPYYLRAPSVALPVAQVPTDPGHFSVLLDVKHFSPEEIAVKVVGEHVEVHARHEERPDEHGFVAREFHRRYRLPPGVDPAAVTSALSPEGVLSIQAAPASAQAPPPAAAK
modifications: phosphoserine at 16
As for B2, the binding result (in the series with 14-3-3σ Clu1 (1-231); in series [1]; with 14-3-3τ (1-230); with 14-3-3ε (1-232); with 14-3-3β (1-232); in the series with 14-3-3η (1-235)) was “binds” throughout. Moreover, the binding result in series [2] was “binds”.

B3: pHSPB6(11-23) phosphopeptide (peptide, UniProt O14558 11-23, looked up)
peptide: H-WLRRA[pS]APLPGLS-OH
SMILES: CC(C)C[C@H](NC(=O)CNC(=O)[C@@H]1CCCN1C(=O)[C@H](CC(C)C)NC(=O)[C@@H]1CCCN1C(=O)[C@H](C)NC(=O)[C@H](COP(=O)(O)O)NC(=O)[C@H](C)NC(=O)[C@H](CCCNC(=N)N)NC(=O)[C@H](CCCNC(=N)N)NC(=O)[C@H](CC(C)C)NC(=O)[C@@H](N)Cc1c[nH]c2ccccc12)C(=O)N[C@@H](CO)C(=O)O
As to B3, in series [4], binding was put at a Kd of 2.3 ± 0.3 µM and the stoichiometry N (in general, a count of units in the complex or per binding partner) was found to be 1. In addition, in the series with 14-3-3σ WT (1-231) [5], binding was characterised by a dissociation constant (Kd) of 6.3 ± 0.5 µM and the “stoichiometry N” value is 1. In the series with 14-3-3σ WT (1-231) [6], the IC50 (usually the concentration needed to halve the response being measured) amounted to 28.9 ± 0.9 µM and binding was put at a Kd of 5.2 ± 0.5 µM.

B4: HSPB6 ACD (residues 72 to 149) (domain or fragment, human, UniProt O14558 72-149, looked up)
chain: GHFSVLLDVKHFSPEEIAVKVVGEHVEVHARHEERPDEHGFVAREFHRRYRLPPGVDPAAVTSALSPEGVLSIQAAPA
As to B4, the binding result in the series “crystal structure” was “binds”.

B5: 14-3-3σ Clu3 (1-231) (domain or fragment, human)
chain: GPHMERASLIQKAKLAEQAERYEDMAAFMKGAVEKGEELSCEERNLLSVAYKNVVGGQRAAWRVLSSIEQKSNEEGSAAAGPEVREYREKVETELQGVCDTVLGLLDSHLIKEAGDAESRVFYLKMKGDYYRYLAEVATGDDKKRIIDSARSAYQEAMDISKKEMPPTNPIRLGLALNFSVFHYEIANSPEEAISLAKTTFDEAMADLHTLSEDSYKDSTLIMQLLRDNLTLWT
Turning to B5, in “crystal structure”, the binding result is listed as “binds”.
As for B6, the binding result in “crystal structure” is “binds”.
With B7, in “crystal structure”, the binding result is listed as “binds”.
